Measurements reported in EP4703390A1.

Assays:
[1] = molecular target: EGFR and c-Met on the surface of tumor cells (human) (UniProt P00533); assay: flow cytometry, NCI-H1993 cells; hIgG1 negative control, EC50 could not be fitted
[2] = molecular target: EGFR and c-Met on the surface of tumor cells (human) (UniProt P00533); assay: flow cytometry, A431 cells; hIgG1 negative control, EC50 could not be fitted
[3] = molecular target: EGFR and c-Met on the surface of tumor cells (human) (UniProt P00533); assay: flow cytometry, NCI-H1975 cells; hIgG1 negative control, EC50 could not be fitted
[4] = molecular target: EGFR and c-Met on the surface of tumor cells (human) (UniProt P00533); assay: cell-based or functional assay

Top(MFI) [1]: 31200 MFI
Top(MFI) [2]: 168000 MFI
Top(MFI) [3]: 38700 MFI
endocytic activity Top(MFI), A431 cells (negative control) [4]: 118000 MFI
endocytic activity Top(MFI), NCI-H441 cells (negative control) [4]: 97500 MFI
endocytic activity Top(MFI), NCI-H1975 cells (negative control) [4]: 110000 MFI
Substance: hIgG1 (Biointron, Cat. No. B117901) (antibody)
